The subject of this data set is Escherichia coli TOP10. In words: shrunken log2 fold change of peptide-encoding DNA abundance (4.5 h post-induction vs induction); higher = less antimicrobial activity (less host growth inhibition). The settings on record: time post-induction: 4.5 h; library: site-saturation at positions 5, 18, 19, 20.
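Note: peptides expressed intracellularly from a pBAD plasmid library in pooled LB shake-flask culture, induced with 0.3% L-arabinose, DNA abundance read by NGS, three biological replicates, DESeq2 with apeglm shrinkage.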

Take RRIRPRPPRLPRPRPRPHDEPRP: the “shrunken log2 fold change” value was -0.0869.
For RRIRQRPPRLPRPRPRPMRSPRP, the “shrunken log2 fold change” value came to 0.196.
RRIRPRPPRLPRPRPRPYVFPRP: the “shrunken log2 fold change” value is -0.659.
Take RRIRFRPPRLPRPRPRPCCHPRP: the “shrunken log2 fold change” value was -0.415.
Consider RRIRRRPPRLPRPRPRPMEEPRP, for which the “shrunken log2 fold change” value came to 0.0408.
For RRIRDRPPRLPRPRPRPLYPPRP, the “shrunken log2 fold change” value was -0.277.
As for RRIRKRPPRLPRPRPRPHHEPRP, the “shrunken log2 fold change” value is -0.0045.
Turning to RRIRYRPPRLPRPRPRPSYPPRP, the “shrunken log2 fold change” value was -0.217.
In the case of RRIRNRPPRLPRPRPRPLGWPRP, the “shrunken log2 fold change” value came out at 0.367.
With RRIRHRPPRLPRPRPRPNYYPRP, the “shrunken log2 fold change” value was -0.639.
As for RRIRMRPPRLPRPRPRPRGAPRP, the “shrunken log2 fold change” value stood at 1.44.
For RRIRIRPPRLPRPRPRPLTKPRP the value was -0.94; for RRIRVRPPRLPRPRPRPLINPRP, -0.354; for RRIRERPPRLPRPRPRPKYLPRP, -0.77.
Turning to RRIRQRPPRLPRPRPRPNCLPRP, the “shrunken log2 fold change” value was -0.0533.
For RRIRCRPPRLPRPRPRPNNNPRP the value was -0.797.
For RRIRARPPRLPRPRPRPALIPRP, the “shrunken log2 fold change” value amounted to 0.379.
In the case of RRIRIRPPRLPRPRPRPDVNPRP, the “shrunken log2 fold change” value was 0.0617.
With RRIRSRPPRLPRPRPRPFSAPRP, the “shrunken log2 fold change” value was -0.259.
The result for RRIRVRPPRLPRPRPRPQTHPRP reads 0.01; that for RRIRVRPPRLPRPRPRPIGWPRP, 0.213.
Take RRIRFRPPRLPRPRPRPQKEPRP: the “shrunken log2 fold change” value stood at 0.172.
The result for RRIRERPPRLPRPRPRPLYYPRP reads -0.694.
For RRIRPRPPRLPRPRPRPYYYPRP, the “shrunken log2 fold change” value was -0.937.
Take RRIRFRPPRLPRPRPRPLMEPRP: the “shrunken log2 fold change” value is -0.00741.
Take RRIRARPPRLPRPRPRPVPTPRP: the “shrunken log2 fold change” value was 0.57.
For RRIRTRPPRLPRPRPRPHHTPRP the value was -0.474; for RRIRRRPPRLPRPRPRPSHDPRP, -0.00919; for RRIRFRPPRLPRPRPRPLFQPRP, -0.446.
Regarding RRIRVRPPRLPRPRPRPSVVPRP, the “shrunken log2 fold change” value is 0.00363.
For the sequence RRIRIRPPRLPRPRPRPQYMPRP, the “shrunken log2 fold change” value is -1.02.
Take RRIRIRPPRLPRPRPRPAWIPRP: the “shrunken log2 fold change” value is -0.187.
Consider RRIRDRPPRLPRPRPRPHGQPRP, for which the “shrunken log2 fold change” value amounted to 0.237.
RRIRLRPPRLPRPRPRPLCIPRP: the “shrunken log2 fold change” value was -0.569.
Consider RRIRKRPPRLPRPRPRPKVVPRP, for which the “shrunken log2 fold change” value came to 0.223.
Take RRIRNRPPRLPRPRPRPKCKPRP: the “shrunken log2 fold change” value is -0.261.
As to RRIRVRPPRLPRPRPRPAPPPRP, the “shrunken log2 fold change” value was 0.577.
For RRIRFRPPRLPRPRPRPHAPPRP, the “shrunken log2 fold change” value was -0.062.
With RRIRSRPPRLPRPRPRPGKQPRP, the “shrunken log2 fold change” value stood at 0.00846.
The result for RRIRHRPPRLPRPRPRPLTAPRP reads -0.0931; that for RRIRSRPPRLPRPRPRPPVGPRP, 0.457.
As to RRIRYRPPRLPRPRPRPATYPRP, the “shrunken log2 fold change” value was -0.113.
For RRIRDRPPRLPRPRPRPCWIPRP, the “shrunken log2 fold change” value is -0.255.
With RRIRDRPPRLPRPRPRPIKEPRP, the “shrunken log2 fold change” value is -0.015.
For RRIRPRPPRLPRPRPRPMGTPRP the value was 0.0218; for RRIRYRPPRLPRPRPRPIEQPRP, -0.00931; for RRIRYRPPRLPRPRPRPNPDPRP, -0.407.
Consider RRIRKRPPRLPRPRPRPCGVPRP, for which the “shrunken log2 fold change” value amounted to 0.143.
For RRIRGRPPRLPRPRPRPSQLPRP the value was 0.461.
For the sequence RRIRQRPPRLPRPRPRPTSLPRP, the “shrunken log2 fold change” value is -0.0738.
As for RRIRNRPPRLPRPRPRPTQFPRP, the “shrunken log2 fold change” value was found to be 0.138.
With RRIRPRPPRLPRPRPRPLNLPRP, the “shrunken log2 fold change” value came to 0.177.
Regarding RRIRHRPPRLPRPRPRPGSYPRP, the “shrunken log2 fold change” value is -0.287.
The result for RRIRNRPPRLPRPRPRPNMGPRP reads -0.00804; that for RRIRFRPPRLPRPRPRPYRQPRP, -0.477.
With RRIRPRPPRLPRPRPRPGDNPRP, the “shrunken log2 fold change” value is -0.00764.
Consider RRIRDRPPRLPRPRPRPNLEPRP, for which the “shrunken log2 fold change” value came out at 0.27.
On to RRIRSRPPRLPRPRPRPPMIPRP, for which the “shrunken log2 fold change” value is -0.17.
On to RRIRVRPPRLPRPRPRPRRVPRP, for which the “shrunken log2 fold change” value came out at 0.256.
As to RRIRYRPPRLPRPRPRPKCPPRP, the “shrunken log2 fold change” value was 0.137.
In the case of RRIRMRPPRLPRPRPRPIGTPRP, the “shrunken log2 fold change” value is 0.403.
Take RRIRNRPPRLPRPRPRPDLDPRP: the “shrunken log2 fold change” value was determined as 0.0497.
With RRIRFRPPRLPRPRPRPMLQPRP, the “shrunken log2 fold change” value is -0.152.
Turning to RRIRVRPPRLPRPRPRPMGVPRP, the “shrunken log2 fold change” value is -0.0267.
Regarding RRIRKRPPRLPRPRPRPIQKPRP, the “shrunken log2 fold change” value amounted to 0.0671.
The result for RRIRARPPRLPRPRPRPENSPRP reads 0.172.
Consider RRIRIRPPRLPRPRPRPNSFPRP, for which the “shrunken log2 fold change” value was -0.391.
The result for RRIRSRPPRLPRPRPRPMMHPRP reads -0.121; that for RRIRWRPPRLPRPRPRPCNSPRP, -0.281; that for RRIRRRPPRLPRPRPRPYPGPRP, -0.123.
Take RRIRFRPPRLPRPRPRPKQMPRP: the “shrunken log2 fold change” value worked out at 0.382.
Take RRIRFRPPRLPRPRPRPMQQPRP: the “shrunken log2 fold change” value is -0.0268.
Consider RRIRFRPPRLPRPRPRPVNKPRP, for which the “shrunken log2 fold change” value is -0.492.
As for RRIRQRPPRLPRPRPRPGQEPRP, the “shrunken log2 fold change” value was -0.018.
With RRIRRRPPRLPRPRPRPWLPPRP, the “shrunken log2 fold change” value was found to be 0.221.
Turning to RRIRRRPPRLPRPRPRPNHPPRP, the “shrunken log2 fold change” value is -0.0297.
On to RRIRPRPPRLPRPRPRPCHSPRP, for which the “shrunken log2 fold change” value was -0.871.
As for RRIRPRPPRLPRPRPRPPRDPRP, the “shrunken log2 fold change” value amounted to 0.521.
Consider RRIRNRPPRLPRPRPRPHGAPRP, for which the “shrunken log2 fold change” value came to 0.245.
In the case of RRIRIRPPRLPRPRPRPRFCPRP, the “shrunken log2 fold change” value was -0.00189.
Turning to RRIRQRPPRLPRPRPRPQDFPRP, the “shrunken log2 fold change” value was -0.372.
The result for RRIRERPPRLPRPRPRPEIMPRP reads -0.00047; that for RRIRHRPPRLPRPRPRPAGRPRP, 0.29.
With RRIRLRPPRLPRPRPRPLGCPRP, the “shrunken log2 fold change” value turned out to be 0.0856.
With RRIRIRPPRLPRPRPRPSYNPRP, the “shrunken log2 fold change” value was -1.15.
Turning to RRIRFRPPRLPRPRPRPTFNPRP, the “shrunken log2 fold change” value was -0.279.
Turning to RRIRARPPRLPRPRPRPDMPPRP, the “shrunken log2 fold change” value came to 0.0755.
Regarding RRIRLRPPRLPRPRPRPHHNPRP, the “shrunken log2 fold change” value is -0.547.
For RRIRERPPRLPRPRPRPCMIPRP the value was -0.2; for RRIRERPPRLPRPRPRPGDAPRP, 0.106.
Regarding RRIRFRPPRLPRPRPRPWPDPRP, the “shrunken log2 fold change” value is 0.0228.

Source of the values: the supplement of paper PMC9112550, “Optimization of the antimicrobial peptide Bac7 by deep mutational scanning” (BMC Biology, 2022).
